Laboratory results as given in publication PMC12631878, “Single‐Cell Transcriptome Analysis Reveals That Hmga2 Regulates Neuroinflammation and Retinal Function by Modulating Müller Cell Autophagy Through PI3K/AKT Signaling Following MCAO‐Induced Retinal Ischemia” (Advanced Science, 2025).

Target: PI3K (protein used in biolayer interferometry) (UniProt P26450 1-724)
Assay: BLI; biolayer interferometry; format and conditions not told in the main text (Figure S4)

Chain of PI3K (protein used in biolayer interferometry) (P26450 2-724): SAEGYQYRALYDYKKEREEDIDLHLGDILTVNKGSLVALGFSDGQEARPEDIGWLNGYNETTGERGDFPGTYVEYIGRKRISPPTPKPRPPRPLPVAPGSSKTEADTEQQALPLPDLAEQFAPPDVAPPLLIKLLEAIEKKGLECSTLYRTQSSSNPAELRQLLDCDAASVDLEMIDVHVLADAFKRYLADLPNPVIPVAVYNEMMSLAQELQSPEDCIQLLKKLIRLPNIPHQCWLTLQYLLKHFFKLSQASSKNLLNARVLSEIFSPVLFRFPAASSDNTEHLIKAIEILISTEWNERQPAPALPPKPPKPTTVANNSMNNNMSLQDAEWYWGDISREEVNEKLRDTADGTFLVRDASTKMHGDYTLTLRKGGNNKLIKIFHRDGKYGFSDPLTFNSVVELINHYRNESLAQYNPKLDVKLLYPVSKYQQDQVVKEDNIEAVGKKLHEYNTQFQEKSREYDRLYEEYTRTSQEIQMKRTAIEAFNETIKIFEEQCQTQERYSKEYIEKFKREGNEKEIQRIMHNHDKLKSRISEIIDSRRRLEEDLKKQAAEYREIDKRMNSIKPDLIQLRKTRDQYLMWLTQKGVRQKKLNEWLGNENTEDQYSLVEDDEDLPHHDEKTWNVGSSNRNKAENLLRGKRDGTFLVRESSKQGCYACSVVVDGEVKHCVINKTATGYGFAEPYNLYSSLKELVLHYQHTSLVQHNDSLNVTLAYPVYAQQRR

B1: Hmga2 (protein used in biolayer interferometry) (natural protein, UniProt P52927 1-108, looked up)
chain: MSARGEGAGQPSTSAQGQPAAPVPQKRGRGRPRKQQQEPTCEPSPKRPRGRPKGSKNKSPSKAAQKKAETIGEKRPRGRPRKWPQQVVQKKPAQETEETSSQESAEED
notes: Hmga2 as used in the biolayer interferometry assay; The main text has no methods for the BLI experiment
- Kd: 12 nM
